One block for each molecule: values may come before it.
Columns and labels:
RadA (RadAFL) = system: T1, RadA (RadAFL); test: coupled spectrophotometric ATPase assay (pyruvate kinase / lactate dehydrogenase, NADH at […] nm), Michaelis-Menten fit; assay type: biochemical, Streptococcus pneumoniae; settings: ATP 0-2 mM, 600 nM RadA, 2 uM nt phiX174 ssDNA, 4 mM Mg(OAc)2, pH 7.5, 37 C
T1 construct: full length, 453 residues, hexamer; recombinant in E. coli; ATPase work with native untagged protein (pET21d); crystal with SeMet RadAFL (pET-radA or StrepII-tagged IBA13-radA), C4 domain (1-35) unresolved

[1] = target: P domain of pneumococcal RadA (RadAP) (S. pneumoniae); test: SEC-MALS; samples at 2 mg/ml injected on Superdex200 Increase coupled to MALS and refractive index detection, 0.4 ml/min, 298 K; hexamer independent of nucleotide and Mg2+
[2] = target: RadA K101A, purified without tag (S. pneumoniae); test: SEC; gel filtration of purified untagged RadA proteins on Superdex 200 increase 10/300 in 25 mM Tris pH 8, 200 mM NaCl, 20% glycerol; calibrated with 43, 158 and 440 kDa standards
[3] = target: RadA K251A, purified without tag (S. pneumoniae); test: as above
[4] = target: RadA R253A, purified without tag (S. pneumoniae); test: as above
[5] = target: full-length pneumococcal RadA (RadAFL), preparation for structural analysis (S. pneumoniae); test: SEC-MALS; samples at 2 mg/ml injected on Superdex200 Increase coupled to MALS and refractive index detection, 0.4 ml/min, 298 K; hexamer independent of nucleotide and Mg2+

Molecule: Nc1ncnc2c1ncn2[C@@H]1O[C@H](COP(=O)(O)OP(=O)(O)OP(=O)(O)O)[C@@H](O)[C@H]1O [ATP]
Km (RadA (RadAFL)): 150 µM

stoichiometry N [1]: 6
Molecule: P domain of pneumococcal RadA (RadAP) (domain or fragment)

Molecule: RadA K101A, purified without tag (enzyme)
stoichiometry N [2]: 6

Molecule: RadA K251A, purified without tag (enzyme)
stoichiometry N [3]: 6

Molecule: RadA R253A, purified without tag (enzyme)
stoichiometry N [4]: 6

stoichiometry N [5]: 6
Molecule: full-length pneumococcal RadA (RadAFL), preparation for structural analysis (enzyme)

Source: article PMC5512693, “Bacterial RadA is a DnaB-type helicase interacting with RecA to promote bidirectional D-loop extension” (Nature Communications, 2017)
